Results: US20250215080A1 (published 2025)
Substitutions are numbered along the chain they refer to.

T1: cyTREM2 ECD (19-174)-APP-Avi (cynomolgus, UniProt A0A2K5UY34 49-204)
T1 construct: range 19-174
T1 sequence: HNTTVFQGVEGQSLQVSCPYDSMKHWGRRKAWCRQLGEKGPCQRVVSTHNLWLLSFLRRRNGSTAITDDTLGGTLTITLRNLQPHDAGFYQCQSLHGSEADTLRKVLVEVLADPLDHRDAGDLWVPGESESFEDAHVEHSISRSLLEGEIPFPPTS

T2: hTREM2 ECD (19-174)-hFc (human, UniProt Q9NZC2 19-174, biotinylated in the -bio form)
T2 construct: Plain and biotinylated forms are kept as one molecule; also called hTREM2 ECD (19-174)-hFc-bio; hTREM2 Fc
T2 sequence: T1 sequence with E10A, R60W, F89L, V125F

T3: hTREM2 ECD (19-174) (human, UniProt Q9NZC2 19-174)
T3 construct: Antigen in solution of the SET experiments; also called human TREM2 (SET antigen)
T3 sequence: T1 sequence with E10A, R60W, F89L, V125F

T4: cynomolgus TREM2 (construct not stated) (cynomolgus, UniProt A0A2K5UY34 49-204)
T4 construct: also called cyno TREM2
T4 sequence: T1 sequence

T5: cyTREM2 ECD (19-174)-hFc (cynomolgus, UniProt A0A2K5UY34 49-204)
T5 construct: range 19-174; also called cyTREM2-ECD (19-174)-hFc-bio
T5 sequence: T1 sequence

T6: hTREM2 IgSF-hTREM1 stalk-hFc (human, UniProt Q9NP99 135-205, limits assumed, biotinylated in the -bio form)
T6 construct: domain: stalk region; also called hTREM2 IgSF-T1 stalk-hFc-bio; hTREM2 IgSF-hTREM1 stalk-hFc-bio
T6 sequence: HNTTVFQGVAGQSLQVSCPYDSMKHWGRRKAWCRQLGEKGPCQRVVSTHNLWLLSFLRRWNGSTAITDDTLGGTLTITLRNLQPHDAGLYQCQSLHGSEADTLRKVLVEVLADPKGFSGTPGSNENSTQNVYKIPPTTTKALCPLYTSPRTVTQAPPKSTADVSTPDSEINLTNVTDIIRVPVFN

T7: human TREM2 (hTREM2), expressed on cells (human, UniProt Q9NZC2 19-230)
T7 construct: Signal peptide 1-18 as stated left out; On CHO cells co-expressed with hDAP12; on hM2A macrophages endogenous; also called WT-TREM2; CHO-hDAP12-hTREM2
T7 sequence: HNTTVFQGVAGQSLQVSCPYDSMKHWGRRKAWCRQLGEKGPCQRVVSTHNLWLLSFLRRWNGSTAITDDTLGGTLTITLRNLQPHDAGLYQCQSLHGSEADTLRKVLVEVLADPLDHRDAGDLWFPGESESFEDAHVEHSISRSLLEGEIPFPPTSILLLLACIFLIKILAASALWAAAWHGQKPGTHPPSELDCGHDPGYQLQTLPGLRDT

T8: cynomolgus TREM2 expressed on CHO cells (cynomolgus, UniProt A0A2K5UY34 49-260)
T8 construct: whole, on cells; also called CHO-cyTREM2; CHO-cynoTREM2
T8 sequence: T7 sequence with A10E, W60R, L89F, F125V, I157V, L193P, Y201H

T9: mTREM2 ECD (19-168)-His (mouse, UniProt Q99NH8 19-168)
T9 construct: range 19-168
T9 sequence (looked up): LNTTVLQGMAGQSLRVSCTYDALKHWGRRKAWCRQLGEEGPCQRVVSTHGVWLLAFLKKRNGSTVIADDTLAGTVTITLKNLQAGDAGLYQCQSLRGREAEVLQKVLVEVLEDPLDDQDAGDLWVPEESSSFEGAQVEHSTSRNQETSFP

T10: hTREM2 ECD (19-174)-His (human, UniProt Q9NZC2 19-174)
T10 sequence: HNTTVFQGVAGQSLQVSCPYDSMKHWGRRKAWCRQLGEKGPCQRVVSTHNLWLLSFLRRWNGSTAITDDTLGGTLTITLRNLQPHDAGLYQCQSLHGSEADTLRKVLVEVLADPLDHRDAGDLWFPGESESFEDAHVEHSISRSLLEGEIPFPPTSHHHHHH

B1: MOR044746 (antibody, V domains shown)
VH: QVQLQQSGPGLVKPSQTLSLTCAISGDSVSSSSAAWNWIRQSPSRGLEWLGHIGYRSKWYNEYAVSVKSRITINPDTSKNQFSLQLNSVTPEDTAVYYCARGMYGSVPYKEGYYFDIWGQGTLVTVSS
VL: DIQMTQSPSSLSASVGDRVTITCRASQGISSDLNWYQQKPGKAPKLLIYAASNLQSGVPSRFSGSGSGTDFTLTISSLQPEDFATYYCQQYTDESMTFGQGTKVEIK
notes: light chain 63); Human IgG vector of the campaign: IgG1f LALA; Matured from MOR042493; VH6 k1; also called MOR44746
B2: MOR044698 (antibody, V domains shown)
VH: QVQLVQSGAEVKKPGASVKVSCKASGYTFTGYHMSWVRQAPGQGLEWMGVINPVSGNTVYAQKFQGRVTMTRDTSISTAYMELSRLRSEDTAVYYCARIPSYTYAFDYWGQGTLVTVSS
VL: DIQMTQSPSSLSASVGDRVTITCRASQDISNYLAWYQQKPGKAPKLLIYRASSLQSGVPSRFSGSGSGTDFTLTISSLQPEDFATYYCFQYRHMPSQTFGQGTKVEIK
notes: light chain 26); Human IgG vector of the campaign: IgG1f LALA; Matured from MOR042596; VH1B k1; also called MOR44698
B3: MOR041877 (full IgG) (antibody, V domains shown)
VH: QVQLKESGPALVKPTQTLTLTCTFSGFSLSTSGVGVSWIRQPPGKALEWLALIFSDHDKIYSTSLKTRLTISKDTSKNQVVLTMTNMDPVDTATYYCARTLIDRSVYFDYWGQGTLVTVSS
VL: DIVLTQPPSVSGAPGQRVTISCSGSSSNIGHHYVSWYQQLPGTAPKLLIYDNTNRPSGVPDRFSGSKSGTSASLAITGLQAEDEADYYCATWDGLMNSIVFGGGTKLTVLG
B4: MOR042596 (full IgG) (antibody, V domains shown)
VH: B2 VH
VL: DIQMTQSPSSLSASVGDRVTITCRASQDISNYLAWYQQKPGKAPKLLIYRASSLQSGVPSRFSGSGSGTDFTLTISSLQPEDFATYYCQQHGHSPTTFGQGTKVEIKR
notes: Parental antibody of MOR044698; VH1B k1

Tests used:
[1] = biological target: T1, cyTREM2 ECD (19-174)-APP-Avi; test: SPR, label free kinetics
Experimental: (§1) For a precise assessment of the binding affinities of the antibodies affinity-determination by measuring kinetic rate constants was performed by SPR. In addition a comparison to cynomolgus TREM2 was performed (Table 21).

[2] = biological target: T2, hTREM2 ECD (19-174)-hFc; test: SPR, label free kinetics
Experimental: as §1

[3] = biological target: T3, hTREM2 ECD (19-174); test: SET
[4] = biological target: T4, cynomolgus TREM2 (construct not stated); test: SET
[5] = biological target: T5, cyTREM2 ECD (19-174)-hFc; test: S/BG on recombinant protein
[6] = biological target: T2, hTREM2 ECD (19-174)-hFc; test: S/BG on recombinant protein
[7] = biological target: T6, hTREM2 IgSF-hTREM1 stalk-hFc; test: S/BG on recombinant protein
[8] = biological target: T7, human TREM2 (hTREM2), expressed on cells; test: FACS, hM2A, donor 3
Experimental: (§2) To determine cellular EC₅₀ of antibodies on hM2A, CHO-hTREM2 or CHO-cynoTREM2, cells were treated o/n with 5 μM DPC333 (ADAM10 and 17 inhibitor; Qian, M et al. Drug Metab Dispos, 2007. 35:p. 1916-1925). Macrophages were detached with accutase (Biolegend, 423201) followed by resuspension in FACS buffer (PBS, 2% FBS, 0.5 mM EDTA, pH 8.0) supplemented with 50 μg/ml Fc block (BD, 564220) and incubated for at least 20 min on ice. Next cells were stained for 1 h at 4° C. in the same buffer with a broad concentration range of the different anti-TREM2 antibodies followed by a washing step with PBS (250 g, 4° C., 3 min). […] After a second washing step with PBS (250 g, 4° C., 3 min), cells were fixed with fixation buffer (Biolegend, 420801) for 15 min at RT, washed again and fluorescence was assessed using a BD FACS Canto II (BD, V96300323) or a FacsCalibur flow cytometer. Median fluorescence intensities corresponding to the degree of TREM2 antibody bound to cells were evaluated using FlowJo software (Millipore INC).
(§3) Individual values for each donor are given.

[9] = biological target: T3, hTREM2 ECD (19-174); test: SET screening
Experimental: Serial dilutions of unlabeled antigen were prepared, starting with a concentration at least 10 times higher than the expected KD. Wells without antigen were used to determine Bmax values; wells containing only assay buffer were used to determine background.
The data was evaluated with XLfit (IDBS) software applying customized fitting models. […] A constant amount of diluted BEL extract (containing borate buffer, EDTA and lysozyme) was equilibrated over night with different concentrations of antigen.

[10] = biological target: T7, human TREM2 (hTREM2), expressed on cells; test: FACS, hM2A, donor 1
Experimental: as §2, §3

[11] = biological target: T8, cynomolgus TREM2 expressed on CHO cells; test: FACS, CHO-cyTREM2 cells
Experimental: as §2

[12] = biological target: T7, human TREM2 (hTREM2), expressed on cells; test: FACS, hM2A, donor 2
Experimental: as §2, §3

[13] = biological target: T7, human TREM2 (hTREM2), expressed on cells; test: FACS, hM2A, donor 4
Experimental: as §2, §3

[14] = biological target: T7, human TREM2 (hTREM2), expressed on cells; test: cell-based or functional assay
[15] = biological target: T7, human TREM2 (hTREM2), expressed on cells; test: cell-based or functional assay; remark: listed apart in the source
[16] = biological target: proteins of the protein panel profiling (3P), 25 in total; test: protein panel profiling (3P), ECL
[17] = biological target: T7, human TREM2 (hTREM2), expressed on cells; test: cell-based or functional assay; remark: listed apart in the source
[18] = biological target: T7, human TREM2 (hTREM2), expressed on cells; test: FACS, hM2A macrophages
Experimental: as §2, §3

[19] = biological target: T7, human TREM2 (hTREM2), expressed on cells; test: FACS, hM2A, median of 4 donors
Experimental: as §2, §3

[20] = biological target: T7, human TREM2 (hTREM2), expressed on cells; test: FACS, CHO-hTREM2 cells
Experimental: as §2

[21] = biological target: T7, human TREM2 (hTREM2), expressed on cells; test: FACS, CHO-hDAP12-hTREM2 cells
[22] = biological target: T7, human TREM2 (hTREM2), expressed on cells; test: FACS, hM2A macrophages; remark: listed apart in the source
[23] = biological target: T7, human TREM2 (hTREM2), expressed on cells; test: cell-based or functional assay; remark: listed apart in the source
[24] = biological target: T7, human TREM2 (hTREM2), expressed on cells; test: FACS, CHO-DAP12-hTREM2 cells
[25] = biological target: T2, hTREM2 ECD (19-174)-hFc; test: direct ELISA
Experimental: Antigens were immobilized on microtiter plates (see Table 8). Plates were blocked and incubated with antibodies such as Fab containing crude E. coli lysates or purified Fab or IgG samples. Bound antibodies were detected using respective alkaline-phosphatase (AP) coupled secondary antibodies in combination with ‘AttoPhos’ fluorescence substrate. Multiple washing steps were performed between individual assay steps.

[26] = biological target: T9, mTREM2 ECD (19-168)-His; test: SPR Biacore
[27] = biological target: T1, cyTREM2 ECD (19-174)-APP-Avi; test: SPR Biacore
[28] = biological target: T10, hTREM2 ECD (19-174)-His; test: SPR Biacore

Row | Binder | Kd [1] [nM] | Kd [2] [nM] | Kd [3] [nM] | Kd [4] [nM] | S/BG [5] | S/BG [6] | S/BG [7] | EC50 [8] [nM] | Kd [9] [nM] | EC50 [10] [nM] | EC50 [11] [nM] | EC50 [12] [nM] | EC50 [13] [nM] | TREM2 activation (fold in RGA) [14] [fold] | Fold TREM2 cell surface increase compared to isotype (hM2A, 100 nM o/n) [15] [fold] | Cumulative binding ratio [16] | Internalization compared to parental after 6 h [17] | Internalization; fold over background after 6 h [17] [fold] | EC50 [18] [nM] | EC50 [19] [nM] | also measured
1 | B1 | 0.004 | 0.003 | 0.003 | 0.004 | > 5 | > 5 | > 20 | 0.54 | < 0.6 | 0.73 | 0.65 | 0.54 | 0.64 | 1.3 | 5.1 | < 150 | 0.7 fold of parental | 33.3 | < 2 | 0.59 | EC50 [20]: 0.16 nM
2 | B2 | 0.039 | 0.046 | 0.046 | 0.039 | > 5 | > 5 | > 20 | 0.55 | < 0.6 | 0.86 | 0.46 | 0.55 | 0.56 | 1 | 7.9 | < 150 | 1.5 fold of parental | 57.1 | < 2 | 0.56 | EC50 [20]: 0.2 nM
3 | B3 | – | – | – | – | – | – | – | – | – | – | – | – | – | – | – | – | – | – | – | – | EC50 [21]: 0.5 nM; EC50 [22]: 0.7 nM; RGA in THP-B5 cells (fold increase over BG) [23]: 2.1 fold
4 | B4 | – | – | – | – | – | – | – | – | – | – | – | – | – | – | – | – | – | – | – | – | EC50 [24]: 3.4 nM; EC50 [25]: 2.4 nM; Kd [26]: 0.9 nM; Kd [27]: 6.6 nM; Kd [28]: 12 nM; EC50 [21]: 3.4 nM; EC50 [22]: 37 nM
